# Experimental data: patent US20150086562A1 (BIOATLA, published 2015)
# Numbering of substitutions follows the chain as printed.
# T1: CD22 protein expressed on the surface of Daudi cells (human, UniProt P20273 20-847)
# T1 sequence (looked up): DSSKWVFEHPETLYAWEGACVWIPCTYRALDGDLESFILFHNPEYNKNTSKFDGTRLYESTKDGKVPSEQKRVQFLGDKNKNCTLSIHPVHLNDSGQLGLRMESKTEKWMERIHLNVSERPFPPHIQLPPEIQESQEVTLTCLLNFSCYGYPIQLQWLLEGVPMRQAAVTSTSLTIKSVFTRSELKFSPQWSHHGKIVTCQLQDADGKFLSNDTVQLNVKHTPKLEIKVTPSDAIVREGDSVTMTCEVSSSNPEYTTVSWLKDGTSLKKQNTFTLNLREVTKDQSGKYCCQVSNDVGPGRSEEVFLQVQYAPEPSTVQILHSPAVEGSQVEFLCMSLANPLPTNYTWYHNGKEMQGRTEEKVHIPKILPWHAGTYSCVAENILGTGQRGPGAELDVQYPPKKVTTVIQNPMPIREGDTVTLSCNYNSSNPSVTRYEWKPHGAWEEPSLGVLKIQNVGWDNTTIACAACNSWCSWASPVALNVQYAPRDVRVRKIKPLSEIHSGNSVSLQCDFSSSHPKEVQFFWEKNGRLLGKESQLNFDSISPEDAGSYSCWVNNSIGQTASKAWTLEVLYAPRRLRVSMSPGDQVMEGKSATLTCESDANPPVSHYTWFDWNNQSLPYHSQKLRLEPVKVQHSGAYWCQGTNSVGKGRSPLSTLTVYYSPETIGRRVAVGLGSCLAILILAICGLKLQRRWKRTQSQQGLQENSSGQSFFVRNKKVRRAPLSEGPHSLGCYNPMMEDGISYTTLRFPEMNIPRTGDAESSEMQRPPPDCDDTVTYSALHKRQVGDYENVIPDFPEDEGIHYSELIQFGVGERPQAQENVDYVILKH
# B1: VM1008 (antibody, V domains shown)
# VH: QVQLVQSGAEVKKPGASVKVSCKASGYVFTSYWLHWVRQARGQRLEWIGYINPRNDYTEYNRIFKGRVTITADKSTSTAYMELSSLRSEDTAVYYCARRGITTFYWGQG
# VL: DIQMTQSPSSLSASVGDRVTITCKSSQSVLYSAVEKNYLAWYQQKPGQAPRLLIYWASTRERGIPDRFSGSGSGTDFTLTISRLEPEDFAVYYCKQYLSSWTFGQG
# notes: Humanized antibody with human constant region; also called Anti-CD22 Ab VM1008; anti-CD22 Mab clone VM1008
# B2: VM1013 (antibody, V domains shown)
# VH: QVQLQESGPGLVKPSQTLSLTCTVSGYVFTSYWLHWIRQPPGKGLEWIGYINPRNDYTEYNRIFKGRFTISRDNAKNSLYLQMNSLRAEDTAVYYCARRGITTFYWGQG
# VL: B1 VL with D1A, M4L, I64V, D66S, R83S, E85Q, V91T
# notes: Humanized antibody with human constant region; also called anti-CD22 Mab clone VM1013
# B3: VM1009 (antibody, V domains shown)
# VH: QVQLVQSGAEVKKPGASVKVSCKASGYVFTSYWLHWIRQSPSRGLEWLGYINPRNDYTEYNRIFKGRFVFSLDTSVSTAYLQICSLKAEDTAVYYCARRGITTFYWGQG
# VL: EIVLTQSPATLSLSPGERATLSCKSSQSVLYSAVEKNYLAWYQQKPGKAPKLLIYWASTRERGVPSRFSGSGSGTDFTFTISSLEAEDAATYYCKQYLSSWTFGQG
# notes: Humanized antibody with human constant region; also called anti-CD22 Mab clone VM1009
# B4: VM1010 (antibody, V domains shown)
# VH: EVQLVQSGAEVKKPGESLRISCKVSGYVFTSYWLHWIRQSPSRGLEWLGYINPRNDYTEYNRIFKGRFTISRDNAKNSLYLQMNSLRAEDTAVYYCARRGITTFYWGQG
# VL: B3 VL with E85Q, A86P, A89I
# notes: Humanized antibody with human constant region; also called anti-CD22 Mab clone VM1010
# B5: VM1012 (antibody, V domains shown)
# VH: QVQLVQSGAEVKKPGASVKVSCKASGYVFTSYWLHWVRQAPGQGLEWMGYINPRNDYTEYNRIFKGRFTISRDNAKNSLYLQMNSLRAEDTAVYYCARRGITTFYWGQG
# VL: B3 VL with L13V, K48Q, K51R, E85Q, A86P, A89I
# notes: Humanized antibody with human constant region; also called anti-CD22 Mab clone VM1012
# B6: VM1005 (antibody, V domains shown)
# VH: B3 VH with Q1E, S17T, V20I, A24V
# VL: B1 VL with D1A, M4L, I64V, D66S, R83S, E85Q, V91T
# notes: Humanized antibody with human constant region; also called anti-CD22 Mab clone VM1005
# Biological target: T1, CD22 protein expressed on the surface …
# Assay: cell-based or functional assay
row,"Daudi Internalization by FACS, % Shift",Binder
1,69.4%,B1
2,88.8%,B2
3,69.4%,B3
4,65.7%,B4
5,87.5%,B5
6,86.4%,B6

# Biological target: T1, CD22 protein expressed on the surface …
# Assay: confocal immunofluorescence, FITC-labelled antibody on Daudi cells
# Description: Selected antiCD22 selected anti-CD22 Mab clones VM1000, VM1001, VM1002, VM1003, VM1004, VM1005, VM1006, VM1007, VM1008, VM1009, VM1010, VM1011, VM1012, VM1013, VM1014, and VM1015 of the invention were directly conjugated to F1TC using the Zenon labeling complex (Molecular Probes) using the manufacturer's recommended procedures. Approximately 1×10e7 Daudi cells were resuspended in PBS containing 5 ug/ml labeled anti-CD22 antibody and incubated for 45 minutes on ice. Cells then washed twice in PBS-FBS solution at 0 C. Cells were then incubated in RPMI 1640 media containing 10% FBS for varying periods at 37 C, harvested and washed in PBS at 0 C. The cells were then briefly fixed in 4% paraformaldehyde solution for 5 min at room temperature, then washed in PBS containing 0.05% Triton X-100. Cell pellets were collected by centrifugation and resupended in a minimal volume of FBS neat, and then applied to glass microscope slides. Prior to analysis, slides were treated with mounting fluid containing the nuclear stain DAPI, then coverslips were applied. Confocal images were recorded using an ACAS Ultima confocal microscope (Meridian Instruments, Inc., Okemos, Mich.) and represent 1-μm sections through the center of a focal plane using a 100× oil immersion objective.
# The Anti-CD22 monoclonal antibodies selected clones VM1000, VM1001, VM1002, VM1003, VM1004, VM1005, VM1006, VM1007, VM1008, VM1009, VM1010, VM1011, VM1012, VM1013, VM1014, and VM1015 of the invention were analysed for their ability to be rapidly internalized into the intracellular compartment as judged by immunoflourescent signal on the cell surface versus the intracellular endo cytotic compartment. The antibodies of the invention were compared to BA006H, and humanized version of the murine monoclonal antibody LL2. In this example, FIG. 21A, the anti-CD22 antibodies of the invention bind to CD22 protein expressed on the surface of Daudi cells by approximately 20-fold compared to BA006H as judged by relative mean fluorescence (RMF), and are virtually completely internalized within the cell with 90 minutes, localizing predominantly to within the perinuclear golgi apparatus and associated lysozomes. Shown in FIG. 21B is a chart of the RMF surface binding values obtained in this manner for individual anti-CD22 antibodies of the invention.
row,fold surface binding by relative mean fluorescence (RMF) compared to BA006H,Binder
1,~20 fold,B1
2,~20 fold,B2
3,~20 fold,B3
4,~20 fold,B4
5,~20 fold,B5
6,~20 fold,B6

# Biological target: T2, recombinant CD22 extracellular domain
# T2 construct: Kept apart from m18, which is cell-surface CD22; also called CD22 (analyte in the BIAcore runs); CD22 ECD
# Assay: ELISA on plates coated with recombinant CD22 extracellular domain (coating 2, 0.2, 0.02 or 0.002 ug/ml per paragraph 227; the sheet does not say which), anti-human IgG-HRP, read at 450 nm
# Description: Nunc-Immuno MaxiSorp 96 well plates were coated with 100 μl of 2 μg/ml, 0.2 μg/ml, 0.02 μg/ml or 0.002 μg/ml recombinant CD22 extracellular domain (PeproTech, Inc. catalog number 100-01 in coating solution (sodium bicarbonate in PBS). The plates were covered with plate sealer and incubated at 4° C. overnight. Plates were emptied and the residual liquid tapped out on paper towels. 200 μl washing solution (0.05% Tween-20 in PBS) was added and shaken at 200 RPM for 5 min at room temperature. The plates were emptied and residual liquid tapped out on paper towels. 200 μl blocking solution (2% Carnation milk in PBS) was added and shaken at 200 RPM for one hour at room temperature. Plates were emptied and residual liquid tapped out on paper towels. 100 μl of diluted samples containing VM1000, VM1001, VM1002, VM1003, VM1004, VM1005, VM1006, VM1007, VM1008, VM1009, VM1010, VM1011, VM1012, VM1013, VM1014, and VM1015 antibodies for ELISA were used. The samples were shaken at 200 RPM for one hour at room temperature; plates emptied and residual liquid tapped out on paper towels. 200 μl washing solution (0.05% Tween-20 in PBS) was added, shaken at 200 RPM for 5 min at room temperature; plates emptied and residual liquid tapped out on paper towels. This process was repeated three times. 100 μl of 1:2500 dilution of anti-human IgG conjugated with HRP diluted in block solution (2% Carnation milk in PBS) was added for all samples. 100 μl of 1:2500 dilution of anti-rabbit IgG conjugated with HRP diluted in block solution (2% Carnation milk in PBS) was added for control antibody. The contents were shaken at 200 RPM for one hour at room temperature, plates emptied and residue liquid tapped out on paper towels. 200 μl washing solution (0.05% Tween-20 in PBS) was added, shaken at 200 RPM for 5 min at room temperature; plates emptied and residual liquid tapped out on paper towels. This process was repeated three times. 100 μl TMB substrate solution was added, and incubated at room temperature. The reaction was stopped with 1 N HCl, and the plate read at 450 nm to determine relative binding affinity (FIG. 17).
row,ELISA OD 450,Binder
1,0.67,B1
2,0.597,B3
3,0.7,B4
4,0.372,B6
